Experimental data published in patent publication US20140087995A1 (published 2014).
Numbered stars: 1 amine (or outer) side, 2 acyl side, 3 side chain; on linkers, the order of the positions; unused ones are H or OH. Bridge positions count the residues as written; N and C are the ends. Side chains are listed from the residue outwards. Ends that are not written are not given here. * marks the point of attachment. C20 diacid = O=C(O)CCCCCCCCCCCCCCCCCCC(=O)*; γGlu = O=C(O)[C@H](CCC(=O)[*:2])N[*:1]; AEEA = NCCOCCOCC(=O)O

target: T1, human amylin receptor (human, UniProt P30988 25-474; O60896 24-148, limits assumed); assay: SPA competition binding, displacement of 125I-rat amylin from membranes with human amylin 3(a) receptor (Assay V)
T1 construct: whole, on cells; Calcitonin receptor plus RAMP-3 gives the amylin 3(a) receptor; membranes of Amylin 3(a)/CRE-luc cells were used; also called hAmylin-R; hAmylinR
T1 sequence (looked up) 1: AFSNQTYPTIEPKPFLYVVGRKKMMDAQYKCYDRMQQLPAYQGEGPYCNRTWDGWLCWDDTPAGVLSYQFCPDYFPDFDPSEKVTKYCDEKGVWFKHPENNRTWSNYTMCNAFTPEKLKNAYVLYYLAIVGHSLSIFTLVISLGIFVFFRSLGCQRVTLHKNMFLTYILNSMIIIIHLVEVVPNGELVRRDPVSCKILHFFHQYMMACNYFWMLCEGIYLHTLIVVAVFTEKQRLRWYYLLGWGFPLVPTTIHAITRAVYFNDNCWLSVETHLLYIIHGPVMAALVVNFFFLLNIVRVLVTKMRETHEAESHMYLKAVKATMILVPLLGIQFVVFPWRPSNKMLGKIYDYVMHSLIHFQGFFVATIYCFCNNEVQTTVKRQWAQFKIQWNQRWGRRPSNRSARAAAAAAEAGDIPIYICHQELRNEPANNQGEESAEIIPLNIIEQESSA
T1 sequence (looked up) 2: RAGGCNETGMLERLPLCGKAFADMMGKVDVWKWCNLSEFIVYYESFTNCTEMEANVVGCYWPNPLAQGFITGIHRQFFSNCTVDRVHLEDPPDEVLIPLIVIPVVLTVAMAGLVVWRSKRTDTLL
Summary of the method: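 Membranes from BHK Amylin 3(a)/CRE-luc cells (35 ng/μL final) were mixed with SPA beads and test compounds in 50 mM Hepes pH 7.4 with 1 mM CaCl2, 5 mM MgCl₂, 0.1% OA and 0.02% Tween20. Incubation ran 120 min at 25° C with shaking; IC₅₀ came from one-site competition fitting.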

Row | Binder | IC50 [nM]
1 | K([AEEA-C20 diacid])CNTATCATQRLANFLRHSSPNFGAIPSSTNVGHNTY-NH2 (disulfide 2-7; N-terminus assumed; SMILES CC[C@H](C)[C@H](NC(=O)[C@H](C)NC(=O)CNC(=O)[C@H](Cc1ccccc1)NC(=O)[C@H](CC(N)=O)NC(=O)[C@@H]1CCCN1C(=O)[C@H](CO)NC(=O)[C@H](CO)NC(=O)[C@H](Cc1c[nH]cn1)NC(=O)[C@H](CCCNC(=N)N)NC(=O)[C@H](CC(C)C)NC(=O)[C@H](Cc1ccccc1)NC(=O)[C@H](CC(N)=O)NC(=O)[C@H](C)NC(=O)[C@H](CC(C)C)NC(=O)[C@H](CCCNC(=N)N)NC(=O)[C@H](CCC(N)=O)NC(=O)[C@@H](NC(=O)[C@H](C)NC(=O)[C@@H]1CSSC[C@H](NC(=O)[C@@H](N)CCCCNC(=O)COCCOCCNC(=O)CCCCCCCCCCCCCCCCCCC(=O)O)C(=O)N[C@@H](CC(N)=O)C(=O)N[C@@H]([C@@H](C)O)C(=O)N[C@@H](C)C(=O)N[C@@H]([C@@H](C)O)C(=O)N1)[C@@H](C)O)C(=O)N1CCC[C@H]1C(=O)N[C@@H](CO)C(=O)N[C@@H](CO)C(=O)N[C@H](C(=O)N[C@@H](CC(N)=O)C(=O)N[C@H](C(=O)NCC(=O)N[C@@H](Cc1c[nH]cn1)C(=O)N[C@@H](CC(N)=O)C(=O)N[C@H](C(=O)N[C@@H](Cc1ccc(O)cc1)C(N)=O)[C@@H](C)O)C(C)C)[C@@H](C)O, also called 17R, 21P, 27P, 34H) [N^ε1-[2-[2-[2-(19-carboxynonadecanoylamino)ethoxy]ethoxy]acetyl]-[Arg17,Pro21,Pro27,His34]-h-amylin] | 0.119
2 | K([AEEA-C20 diacid])CNTATCATQRLAHFLRHSSPNFGAIPSSTNVGSNTY-NH2 (disulfide 2-7; N-terminus assumed; SMILES CC[C@H](C)[C@H](NC(=O)[C@H](C)NC(=O)CNC(=O)[C@H](Cc1ccccc1)NC(=O)[C@H](CC(N)=O)NC(=O)[C@@H]1CCCN1C(=O)[C@H](CO)NC(=O)[C@H](CO)NC(=O)[C@H](Cc1c[nH]cn1)NC(=O)[C@H](CCCNC(=N)N)NC(=O)[C@H](CC(C)C)NC(=O)[C@H](Cc1ccccc1)NC(=O)[C@H](Cc1c[nH]cn1)NC(=O)[C@H](C)NC(=O)[C@H](CC(C)C)NC(=O)[C@H](CCCNC(=N)N)NC(=O)[C@H](CCC(N)=O)NC(=O)[C@@H](NC(=O)[C@H](C)NC(=O)[C@@H]1CSSC[C@H](NC(=O)[C@@H](N)CCCCNC(=O)COCCOCCNC(=O)CCCCCCCCCCCCCCCCCCC(=O)O)C(=O)N[C@@H](CC(N)=O)C(=O)N[C@@H]([C@@H](C)O)C(=O)N[C@@H](C)C(=O)N[C@@H]([C@@H](C)O)C(=O)N1)[C@@H](C)O)C(=O)N1CCC[C@H]1C(=O)N[C@@H](CO)C(=O)N[C@@H](CO)C(=O)N[C@H](C(=O)N[C@@H](CC(N)=O)C(=O)N[C@H](C(=O)NCC(=O)N[C@@H](CO)C(=O)N[C@@H](CC(N)=O)C(=O)N[C@H](C(=O)N[C@@H](Cc1ccc(O)cc1)C(N)=O)[C@@H](C)O)C(C)C)[C@@H](C)O, also called 14H, 17R, 21P, 27P) [N^ε1-[2-[2-[2-(19-carboxynonadecanoylamino)ethoxy]ethoxy]acetyl]-[His14,Arg17,Pro21,Pro27]-h-amylin] | 0.061
3 | K([AEEA-AEEA-γGlu-C20 diacid])CNTATCATQRLANFLRHSSPNFGAIPSSTNVGSETY-NH2 (disulfide 2-7; N-terminus assumed; SMILES CC[C@H](C)[C@H](NC(=O)[C@H](C)NC(=O)CNC(=O)[C@H](Cc1ccccc1)NC(=O)[C@H](CC(N)=O)NC(=O)[C@@H]1CCCN1C(=O)[C@H](CO)NC(=O)[C@H](CO)NC(=O)[C@H](Cc1c[nH]cn1)NC(=O)[C@H](CCCNC(=N)N)NC(=O)[C@H](CC(C)C)NC(=O)[C@H](Cc1ccccc1)NC(=O)[C@H](CC(N)=O)NC(=O)[C@H](C)NC(=O)[C@H](CC(C)C)NC(=O)[C@H](CCCNC(=N)N)NC(=O)[C@H](CCC(N)=O)NC(=O)[C@@H](NC(=O)[C@H](C)NC(=O)[C@@H]1CSSC[C@H](NC(=O)[C@@H](N)CCCCNC(=O)COCCOCCNC(=O)COCCOCCNC(=O)CC[C@H](NC(=O)CCCCCCCCCCCCCCCCCCC(=O)O)C(=O)O)C(=O)N[C@@H](CC(N)=O)C(=O)N[C@@H]([C@@H](C)O)C(=O)N[C@@H](C)C(=O)N[C@@H]([C@@H](C)O)C(=O)N1)[C@@H](C)O)C(=O)N1CCC[C@H]1C(=O)N[C@@H](CO)C(=O)N[C@@H](CO)C(=O)N[C@H](C(=O)N[C@@H](CC(N)=O)C(=O)N[C@H](C(=O)NCC(=O)N[C@@H](CO)C(=O)N[C@@H](CCC(=O)O)C(=O)N[C@H](C(=O)N[C@@H](Cc1ccc(O)cc1)C(N)=O)[C@@H](C)O)C(C)C)[C@@H](C)O, also called 17R, 21P, 27P, 35E) | 0.768
4 | K([AEEA-AEEA-γGlu-C20 diacid])CNTATCATQRLANFLRHSSPNFGAIPSSTNVGHNTY-NH2 (disulfide 2-7; N-terminus assumed; SMILES CC[C@H](C)[C@H](NC(=O)[C@H](C)NC(=O)CNC(=O)[C@H](Cc1ccccc1)NC(=O)[C@H](CC(N)=O)NC(=O)[C@@H]1CCCN1C(=O)[C@H](CO)NC(=O)[C@H](CO)NC(=O)[C@H](Cc1c[nH]cn1)NC(=O)[C@H](CCCNC(=N)N)NC(=O)[C@H](CC(C)C)NC(=O)[C@H](Cc1ccccc1)NC(=O)[C@H](CC(N)=O)NC(=O)[C@H](C)NC(=O)[C@H](CC(C)C)NC(=O)[C@H](CCCNC(=N)N)NC(=O)[C@H](CCC(N)=O)NC(=O)[C@@H](NC(=O)[C@H](C)NC(=O)[C@@H]1CSSC[C@H](NC(=O)[C@@H](N)CCCCNC(=O)COCCOCCNC(=O)COCCOCCNC(=O)CC[C@H](NC(=O)CCCCCCCCCCCCCCCCCCC(=O)O)C(=O)O)C(=O)N[C@@H](CC(N)=O)C(=O)N[C@@H]([C@@H](C)O)C(=O)N[C@@H](C)C(=O)N[C@@H]([C@@H](C)O)C(=O)N1)[C@@H](C)O)C(=O)N1CCC[C@H]1C(=O)N[C@@H](CO)C(=O)N[C@@H](CO)C(=O)N[C@H](C(=O)N[C@@H](CC(N)=O)C(=O)N[C@H](C(=O)NCC(=O)N[C@@H](Cc1c[nH]cn1)C(=O)N[C@@H](CC(N)=O)C(=O)N[C@H](C(=O)N[C@@H](Cc1ccc(O)cc1)C(N)=O)[C@@H](C)O)C(C)C)[C@@H](C)O, also called 17R, 21P, 27P, 34H) | 0.568
5 | K([AEEA-AEEA-γGlu-C20 diacid])CNTATCATQRLANFLRHSSPNFGAIPSSTPVGSNTY-NH2 (disulfide 2-7; N-terminus assumed; SMILES CC[C@H](C)[C@H](NC(=O)[C@H](C)NC(=O)CNC(=O)[C@H](Cc1ccccc1)NC(=O)[C@H](CC(N)=O)NC(=O)[C@@H]1CCCN1C(=O)[C@H](CO)NC(=O)[C@H](CO)NC(=O)[C@H](Cc1c[nH]cn1)NC(=O)[C@H](CCCNC(=N)N)NC(=O)[C@H](CC(C)C)NC(=O)[C@H](Cc1ccccc1)NC(=O)[C@H](CC(N)=O)NC(=O)[C@H](C)NC(=O)[C@H](CC(C)C)NC(=O)[C@H](CCCNC(=N)N)NC(=O)[C@H](CCC(N)=O)NC(=O)[C@@H](NC(=O)[C@H](C)NC(=O)[C@@H]1CSSC[C@H](NC(=O)[C@@H](N)CCCCNC(=O)COCCOCCNC(=O)COCCOCCNC(=O)CC[C@H](NC(=O)CCCCCCCCCCCCCCCCCCC(=O)O)C(=O)O)C(=O)N[C@@H](CC(N)=O)C(=O)N[C@@H]([C@@H](C)O)C(=O)N[C@@H](C)C(=O)N[C@@H]([C@@H](C)O)C(=O)N1)[C@@H](C)O)C(=O)N1CCC[C@H]1C(=O)N[C@@H](CO)C(=O)N[C@@H](CO)C(=O)N[C@H](C(=O)N1CCC[C@H]1C(=O)N[C@H](C(=O)NCC(=O)N[C@@H](CO)C(=O)N[C@@H](CC(N)=O)C(=O)N[C@H](C(=O)N[C@@H](Cc1ccc(O)cc1)C(N)=O)[C@@H](C)O)C(C)C)[C@@H](C)O, also called 17R, 21P, 27P, 31P) | 0.166
6 | K([AEEA-AEEA-γGlu-C20 diacid])CNTATCATQRLANFLRHSSPNFGAIPSSTNVGPNTY-NH2 (disulfide 2-7; N-terminus assumed; SMILES CC[C@H](C)[C@H](NC(=O)[C@H](C)NC(=O)CNC(=O)[C@H](Cc1ccccc1)NC(=O)[C@H](CC(N)=O)NC(=O)[C@@H]1CCCN1C(=O)[C@H](CO)NC(=O)[C@H](CO)NC(=O)[C@H](Cc1c[nH]cn1)NC(=O)[C@H](CCCNC(=N)N)NC(=O)[C@H](CC(C)C)NC(=O)[C@H](Cc1ccccc1)NC(=O)[C@H](CC(N)=O)NC(=O)[C@H](C)NC(=O)[C@H](CC(C)C)NC(=O)[C@H](CCCNC(=N)N)NC(=O)[C@H](CCC(N)=O)NC(=O)[C@@H](NC(=O)[C@H](C)NC(=O)[C@@H]1CSSC[C@H](NC(=O)[C@@H](N)CCCCNC(=O)COCCOCCNC(=O)COCCOCCNC(=O)CC[C@H](NC(=O)CCCCCCCCCCCCCCCCCCC(=O)O)C(=O)O)C(=O)N[C@@H](CC(N)=O)C(=O)N[C@@H]([C@@H](C)O)C(=O)N[C@@H](C)C(=O)N[C@@H]([C@@H](C)O)C(=O)N1)[C@@H](C)O)C(=O)N1CCC[C@H]1C(=O)N[C@@H](CO)C(=O)N[C@@H](CO)C(=O)N[C@H](C(=O)N[C@@H](CC(N)=O)C(=O)N[C@H](C(=O)NCC(=O)N1CCC[C@H]1C(=O)N[C@@H](CC(N)=O)C(=O)N[C@H](C(=O)N[C@@H](Cc1ccc(O)cc1)C(N)=O)[C@@H](C)O)C(C)C)[C@@H](C)O, also called 17R, 21P, 27P, 34P) | 0.091
